Target: CMG assembled in vitro on roadblocked linear DNA from loaded MCM double hexamers and purified firing factors (yeast (strains based on W303)) (UniProt Q08032)
Test: negative-stain EM with 2D classification; origin activation reconstituted with purified yeast proteins on bead-tethered linear DNA capped by covalent protein roadblocks; eluted by DNA digestion at a single site; particles counted in 2D class averages

## Pol epsilon used in the reconstituted origin activation (MCM train) reactions, P21951 1-2222; P24482 1-689; P27344 1-201; Q04603 1-196
  percent of isolated (not train-incorporated) CMG particles bound by Pol epsilon: 2%
